Test results as given in patent US9266940 (Novo Nordisk, dated 2016).
Numbered stars: 1 amine (or outer) side, 2 acyl side, 3 side chain; on linkers, the order of the positions; unused ones are H or OH. Square brackets hold non-standard residues; d marks the D form. Side chains are listed from the residue outwards. Ends that are not written are not given here. * marks the point of attachment. Dodecanoyl(12-OPh(4-COOH)) = O=C(O)c1ccc(OCCCCCCCCCCCC(=O)*)cc1; Decanoyl(10-(4-HOOC-PhO)) = O=C(O)c1ccc(OCCCCCCCCCC(=O)*)cc1; γGlu = O=C(O)[C@H](CCC(=O)[*:2])N[*:1]; C14 diacid = O=C(O)CCCCCCCCCCCCC(=O)*; AEEA = NCCOCCOCC(=O)O; Aib = CC(C)(N)C(=O)O

Tests used:
human GLP-1 receptor [1] = molecular target: T1, human GLP-1 receptor (human, UniProt P43220 24-463); test: SPA, displacement of 125I-GLP-1(7-36)NH2 from hGLP-1R BHK membranes, low HSA (0.001%)
T1 construct: whole, on cells; Used as purified plasma membranes of the stably transfected BHK cell line, not as intact cells; also called hGLP-1
Method: (§1) A shift in the binding affinity, $IC50$, is an indication that the peptide in question binds to albumin, and thereby a prediction of a potential protracted pharmacokinetic profile of the peptide in question in animal models.
(§2) 50 ul (micro liter) HSA ("high albumin" experiment containing 2% HSA), or buffer ("low albumin" experiment containing 0.001% HSA), was added to Optiplate, and 25 ul of test compounds were added. 5-10 ug membrane protein/sample was added (50 ul) corresponding to 0.1-0.2 mg protein/ml (to be preferably optimised for each membrane preparation). SPA-particles (Wheatgerm agglutinin SPA beads, Perkin Elmer, #RPNQ0001) were added in an amount of 0.5 mg/well (50 ul). […] The plates were sealed with PlateSealer and incubated for 120 minutes at 30° C. while shaking. The plates were centrifuged (1500 rpm, 10 min) and counted in Topcounter.

human GLP-1 receptor [2] = molecular target: T1, human GLP-1 receptor; test: SPA, displacement of 125I-GLP-1(7-36)NH2 from hGLP-1R BHK membranes, high HSA (2.0%)
Method: as §1, §2

human GLP-1 receptor [3] = molecular target: T1, human GLP-1 receptor; test: SPA displacement assay; IC50 at 2.0% HSA over IC50 at 0.001% HSA
Method: as §1, §2

human GLP-1 receptor [4] = molecular target: T1, human GLP-1 receptor; test: cell-based or functional assay

Binder	IC50 (human GLP-1 receptor [1]) [nM]	IC50 (human GLP-1 receptor [2]) [nM]	Ratio [(IC50/nM) high HSA]/[(IC50/nM) low HSA] (human GLP-1 receptor [3])	EC50/pM (in vitro potency, cAMP formation, AlphaScreen) (human GLP-1 receptor [4]) [pM]
HAEGTFTSDVSSYLEEQAARK([AEEA-AEEA-γGlu-Decanoyl(10-(4-HOOC-PhO))])FIAWLVRGK([AEEA-AEEA-γGlu-Decanoyl(10-(4-HOOC-PhO))]) (ends and bridges not checked)	0.29	29	101	62
H[Aib]EGTFTSDVSSYLEK([AEEA-AEEA-γGlu-C14 diacid])QAVRK([AEEA-AEEA-γGlu-C14 diacid])FIAWLVR	1.41	80	57	159
H[Aib]EGTFTSDVSSYLEEQAARK([AEEA-AEEA-γGlu-Decanoyl(10-(4-HOOC-PhO))])FIEWLVRGK([AEEA-AEEA-γGlu-Decanoyl(10-(4-HOOC-PhO))])GEG (also called 31)	0.35	220	629	37
HAEGTFTSDVSSYLEEQAARK([AEEA-AEEA-γGlu-Decanoyl(10-(4-HOOC-PhO))])FIEWLVRGK([AEEA-AEEA-γGlu-Decanoyl(10-(4-HOOC-PhO))])GEG	0.39	320	821	43
HAEGTFTSDVSSYLEEQAARK([AEEA-AEEA-γGlu-Dodecanoyl(12-OPh(4-COOH))])FIEWLVRGK([AEEA-AEEA-γGlu-Dodecanoyl(12-OPh(4-COOH))])GEG (also called 32)	0.18	369	2050	76
H[Aib]EGTFTSDVSSYK([AEEA-AEEA-γGlu-Decanoyl(10-(4-HOOC-PhO))])EEQAARK([AEEA-AEEA-γGlu-Decanoyl(10-(4-HOOC-PhO))])FIEWLVG	5.68	446	79	468
H[Aib]EGTFTSDVSSYLEK([AEEA-AEEA-γGlu-C14 diacid])QAVRK([AEEA-AEEA-γGlu-C14 diacid])FIAWLVRG	0.38	60	157	242
HAEGTFTSDVSSYLEEQK([AEEA-AEEA-γGlu-Decanoyl(10-(4-HOOC-PhO))])ARK([AEEA-AEEA-γGlu-Decanoyl(10-(4-HOOC-PhO))])FIAHLVG (also called 25)	10.9	39	3.5	380
